In assay [1] the target is Dictyostelium actin filaments (F-actin) (Dictyostelium) (UniProt P07830). In words: steady-state actin critical concentration, calibrated pyrene fluorescence.
For assay [2] the target is unchanged. In words: steady-state actin critical concentration, uncalibrated pyrene fluorescence.
For assay [3] the target is unchanged. In words: steady-state actin critical concentration, sedimentation.
For assay [4], the target named is Dictyostelium actin monomer (G-actin) (Dictyostelium) (UniProt P07830). In words: other fluorescence titration.
Assay [5] has the same target. In words: other fluorescence titration. This is another data set of the same source.
For assay [6] the target is unchanged. The experiment in a line: other fluorescence titration. This is another data set of the same source.

pKd: −log10 of the molar value. Like-named read-outs stand apart in the source and are kept apart here.

As a reminder, the pKd is −log10 of the Kd, conventionally taken in molar units. The low end stands for a large Kd, the high end for a small Kd. As for “Dictyostelium elongation factor 1 alpha (EF1 alpha) (from UniProt P0CT31 1-453) (natural protein)”, the pKd in assay [1] was 6.85; in assay [2], 6.04; in assay [3], 6.40; in assay [4] it was 6.15; in assay [5] it was 5.85; in assay [6], 5.41.

The record behind these values is paper PMC2121097.
